Patent US20240336661A1, “PEPTIDES DERIVED FROM RUMINOCOCCUS TORQUES” (University of Copenhagen, priority 2021, published 2024)

Tested on: murine inguinal white adipocytes
Test: Thermogenesis gene expression in murine inguinal adipocytes (q-PCR)
Assay type: cell-based, mouse
Settings: murine inguinal white adipocytes from stromal vascular fraction, treated 4 days
Method: FIG. 9. Exposure of recombinant RUCILP2 to human visceral white pre-adipocytes or murine inguinal white adipocytes causes up-regulation of the expression of genes involved in thermogenesis/browning. Upper panel: mRNA expression level of adipocyte differentiation marker genes including Ucp1, Pparγ1, Dio2, and Cox2 and brown adipocyte-selective genes including Cpt1b and Ebf2 on human white preadipocytes (HWP). Human white preadipocytes were cultured until 80% confluent and switched into differentiation media (with 0.3 ml/ml fetal calf serum, 8 ug/ml d-biotin, 0.5 ug/ml insulin, 400 ng/ml dexamethasone). The differentiation process to mature adipocytes was completed after 12-14 days. The treatment of RUCILP2 started from the third day of differentiation. Cells were harvested after 14 days of differentiation and the gene expressions were quantified by q-PCR. […] Statistical significance was determined by unpaired two-tailed Student's t test. *, p<0.05 vs 0 nM RUCILP2.
FIG. 28. […] Cells were harvested after 14 days of differentiation and the indicated genes were quantified by q-PCR. […] Cells were harvested after 6 days of differentiation and thermogenesis gene were quantified by q-PCR. […] Cells were harvested after 4 days of differentiation and expression of myogenesis genes were quantified by q-PCR. […] Statistical significance was determined by unpaired two-tailed Student's t test, *, p<0.05 […]

B1: RUCILP2: 87 amino acid irisin-like polypeptide cleaved from the Ruminococcus torques FNDC5-like protein RUMTOR_00181; recombinant, 6-His-tagged from E. coli (protein)
chain: APVDVKVSEITETSAKASWKNAADGKEAAGYNVYVDGVKLNKELLTEASCGLTNLKAETTYFVEVTAVDAAGNESVKSEKVTFKTLK
modifications: 6-His tag; Ruminococcus torques
notes: 87 amino acid irisin-like polypeptide cleaved from the Ruminococcus torques FNDC5-like protein RUMTOR_00181; recombinant, 6-His-tagged from E. coli
- expression of genes involved in thermogenesis/browning: up-regulation
